The text below walks through data of patent US20060105442, “Promoters and proteins from Clostridium thermocellum and uses thereof” (published 2006).

For this data set, the target named is T1, rGlyR3 (CelR3) (Clostridium thermocellum).
T1 chain: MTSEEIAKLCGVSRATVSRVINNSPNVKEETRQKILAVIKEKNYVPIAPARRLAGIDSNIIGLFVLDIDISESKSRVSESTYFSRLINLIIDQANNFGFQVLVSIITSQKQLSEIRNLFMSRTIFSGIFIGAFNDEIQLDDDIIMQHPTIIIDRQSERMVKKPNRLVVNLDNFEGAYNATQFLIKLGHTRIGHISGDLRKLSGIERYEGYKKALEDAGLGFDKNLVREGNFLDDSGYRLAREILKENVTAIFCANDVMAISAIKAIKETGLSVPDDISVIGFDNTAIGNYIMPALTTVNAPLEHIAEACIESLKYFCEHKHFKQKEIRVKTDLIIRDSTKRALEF
As to the kind of experiment: EMSA; dose dependent; inhibited by laminaribiose. (Mobility shift assays separate free from complexed probe on a gel.)

B1: 18 bp GlyR3 binding site (dsDNA)
DNA 1: AATGAACGCGCGTACATT
DNA 2: AATGTACGCGCGTTCATT
In the case of B1, the binding result was “binds”.
